Data: PMC5407770, “Pyridoxal phosphate synthases PdxS/PdxT are required for Actinobacillus pleuropneumoniae viability, stress tolerance and virulence” (PLoS ONE, 2017)

Tests used:
PdxS = molecular target: T1, PdxS (Actinobacillus pleuropneumoniae, UniProt B3GXB6); test: PLP formation assay, OD414; format: biochemical; details: 50 mM Tris-HCl pH 8.0, 37°C, PdxS alone, 10 mM ammonium sulfate in place of glutamine
T1 construct: full-length ORF (888 bp), pET22b(+) NdeI/XhoI, His6-tag kept, E. coli BL21(DE3); PdxS alone, without PdxT
T1 sequence (B3GXB6 whole entry): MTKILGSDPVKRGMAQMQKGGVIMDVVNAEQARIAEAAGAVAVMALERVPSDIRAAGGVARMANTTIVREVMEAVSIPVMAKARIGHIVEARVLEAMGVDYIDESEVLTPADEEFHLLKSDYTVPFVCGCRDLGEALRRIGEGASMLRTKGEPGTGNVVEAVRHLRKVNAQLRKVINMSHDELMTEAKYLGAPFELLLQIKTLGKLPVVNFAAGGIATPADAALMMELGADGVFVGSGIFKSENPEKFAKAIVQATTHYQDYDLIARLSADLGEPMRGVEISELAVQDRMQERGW

O=CC(O)COP(=O)(O)O = test: purified protein; details: 50 mM Tris-HCl pH 8.0, 37°C, PdxS + PdxT mixture, co-substrates ribose 5-phosphate and glutamine, glyceraldehyde 3-phosphate 0–1.0 mM (DL form per methods)
NC(=O)CC[C@H](N)C(=O)O = test: purified protein; details: 50 mM Tris-Cl pH 8.0, 37°C, PdxS + PdxT mixture, glutamine 0–15 mM

O=CC(O)COP(=O)(O)O (racemic) [glyceraldehyde 3-phosphate]
PLP formation assay, OD414 (PdxS; 0.5 mM ribose 5-phosphate): the individual PdxS could produce PLP in the addition of ammonium

O=P(O)(O)OC[C@H]1OC(O)[C@H](O)[C@@H]1O (stereo partly drawn) [ribose 5-phosphate]
PLP formation assay, OD414 (PdxS; 1 mM DL-glyceraldehyde 3-phosphate): the individual PdxS could produce PLP in the addition of ammonium

PLP synthase PdxS and PdxT (PLP synthesis activity) (Actinobacillus pleuropneumoniae serovar 7 str. AP76)
Km (O=CC(O)COP(=O)(O)O): 175.7 ± 23.0 µM | kcat (O=CC(O)COP(=O)(O)O): 0.000383 ± 1.83e-05 s⁻¹

PdxS and PdxT (PLP synthase; glutaminase activity of PdxT with PdxS) (Actinobacillus pleuropneumoniae serovar 7 str. AP76)
Km (NC(=O)CC[C@H](N)C(=O)O): 1720 ± 140 µM | kcat (NC(=O)CC[C@H](N)C(=O)O): 0.102 ± 0.00233 s⁻¹
